Experimental data published in patent US7960513B2, “Antibody against a human ADAM protease” (Monash University, priority 2004, dated 2011).

Experiments:
HEK293 cells [1] = assay: Confocal imaging of co-cultured EphA3-diHcRed/ADAM10 and GFP-ephrin expressing cells; assay type: cell-based, human; conditions: co-incubation with GFP-ephrin-A5 or GFP-ephrin-A2 cells for 40 min
Method: FIG. 4. Mutation of acidic residues in the ADAM10 Cys-rich domain affects binding to EphA3/ephrin-A5 and cleavage of ephrin-A5. • A. In vitro binding of mutant ADAM10D+C to EphA3/ephrin-A5. ADAM10D+C[EEE-A] containing Alanine substitutions of Glu573, Glu578, Glu579 (lanes 1-4) or ADAM10D+C[RDD-A] (Ala substitutions of Arg525, Asp526, Asp527, lanes 5-8) were incubated alone (lanes 1, 5), or together with EphA3-Fc (lanes 2, 6), ephrin-A5-Fc (lanes 3, 7), or EphA3-Fc and ephrin-A5 (lanes 4, 8). Complexed proteins were extracted with Protein-A-Sepharose beads and analysed as in FIG. 2. • B. Binding of wild-type and mutant ADAM10ΔMP to EphA3 in cells. EphA3/293 cells were transfected with HA-ADAM10ΔMP or HA-ADAM10ΔMP [EEE-A]. Parental and transfected cells were treated for 10 min with or without pre-clustered ephrin-A5-Fc and lysed. Anti-HA and anti-EphA3 immunoprecipitates, and total cell lysates were analysed by Western blotting with indicated antibodies. • C. Ephrin-A5-Fc cleavage in cells expressing wt and 3A mutant ADAM10. EphA3/293 cells were transfected with full length, wild-type (wt) ADAM10, dominant-negative ADAM10ΔMP, or ADAM10 bearing alanine (3A) or 3 lysine (3K) substitutions of Glu573, 578, 579. Following exposure to clustered (+) or non-clustered ? ephrin-A5 Fc, cleaved ephrin was recovered and analysed by Western Blot as described in FIG. 1c. Parallel anti-HA blots of whole-cell lysates reveal the expression levels of ADAM10 constructs. • D. Model of ADAM protein modules and cleavage mechanism. Left, schematic representation of ADAM proteinases protein domain organization; right, schematic representation of the proposed interactions and positioning of ADAM10, EphA3, and Ephrin-A5 between interacting cells, leading to controlled ephrin-cleavage. • E. Ephrin cleavage from the cell surface is blocked by overexpression of 3A-mutant ADAM10. HEK293 cells were co-transfected with (red-fluorescent) EphA3-diHcRed and either wt ADAM10, ADAM10 bearing alanine (3A) substitutions at Glu573, Glu578, and Glu579, or dominant-negative ADAM10ΔMP. […]

HEK293 cells [2] = assay: Confocal imaging of pro-EGF shedding in co-cultured EGFR-GFP/ADAM10 and HA-pro-EGF expressing cells; assay type: cell-based, human; conditions: co-incubation with HA-pro-EGF cells for 15 min
Method: FIG. 5. Cleavage of cell surface pro-EGF by ADAM10 co-expressed with the EGF receptor requires the intact substrate recognition pocket of ADAM10. HEK293 cells transiently expressing EGFR-GFP and either wild type or 3A mutant ADAM10 (as indicated) were co-incubated with HEK293 cells expressing HA-tagged pro-EGF for 15 min. The cells were then washed, fixed and stained with antibodies against ADAM10 (Alexa^546, red) and HA (Alexa^647, cyan). Arrows indicate EGFR/3A Adam10-expressing cells unable to take up EGF from associated HA-pro-EGF expressing cells (stars); arrowheads indicate cells that have taken up EGF that over-express EGFR and wtAdam10 (bottom panels), or just EGFR (with endogenous Adam10), top panels.
ADAM-mediated ligand cleavage from the cell surface, also referred to as ‘shedding’ has been extensively described as mechanism that facilitates the release of the pro-forms of the EGF-receptor ligands (Blobel, 2005, supra). We were interested to see, if the here described substrate recognition site of ADAM10 would function also to recognise pro-EGF and regulate its shedding from the cell surface. We performed the same confocal imaging approach, using HEK293 cells transfected to express GFP-tagged EGF-receptor, which were co-cultured with cells expressing HA-tagged pro-EGF. […]

B1: ADAM10 [EEE-A] mutant: full-length ADAM10 with alanine substitutions of Glu573, Glu578 and Glu579 (protein)
chain: TTVAEKNTCQLYIQTDHLFFKYYGTREAVIAQISSHVKAIDTIYQTTDFSGIRNISFMVKRIRINTTADEKDPTNPFRFPNIGVEKFLELNSEQNHDDYCLAYVFTDRDFDDGVLGLAWVGAPSGSSGGICEKSKLYSDGKKKSLNTGIITVQNYGSHVPPKVSHITFAHEVGHNFGSPHDSGTECTPGESKNLGQKENGNYIMYARATSGDKLNNNKFSLCSIRNISQVLEKKRNNCFVESGQPICGNGMVEQGEECDCGYSDQCKDECCYDANQPEGKKCKLKPGKQCSPSQGPCCTAHCAFKSKTEKCRDDSDCAKEGICNGITALCPASDPKPNFTDCNRHTQVCINGQCAGSICAKHGLAACTCASSDGKDDKELCHVCCMKKMEPSTCASTGSVQWNKYFLGRTITLQPGSPCNDFRGYCDVFMRCRLVDADGPLARLKKAIFSPELYENIAEWIVAYWWAVLLMGIALIMLMAGFIKICSVHTPSSNPKLPPPKPLPGTLKRRRPPQPIQQPQRQRPRESYQMGHMRR
modifications: left off: small tags and cut ends
notes: full-length ADAM10 with alanine substitutions of Glu573, Glu578 and Glu579
**Q.** For B1, which “ephrin cleavage from the cell surface and internalisation” value (HEK293 cells [1]) is on record?
**A.** Its value is “absent”.

**Q.** And the “ephrin cleavage from the cell surface and internalisation” value (HEK293 cells [1]; listed as 3A-mutant ADAM10)?
**A.** The value was “blocked”.

**Q.** What about the “EGF shedding and uptake into EGF-receptor expressing cells” value (HEK293 cells [2]) of the same molecule?
**A.** Its value is “dramatically reduced”.
